B1: AG10081 (antibody, human IgG4 S228P, kappa, V domains shown)
VH: EVQLVESGGGLVQPGGSLRLSCAASGYSISSGHYWGWIRQAPGKGLEWLALIDWYGDKYYSTSLKSRLTISRDNSKNTLYLQLNSLRAEDTAVYYCARSDYYGSHFDYWGQGTLVTVSS
VL: DIQLTQSPSSLSASVGDRVTITCRASESVDFDGFSFLAWYQQKPGKAPKLLIYDASNLETGVPSRFSGSGSGTDFTLTISSLQPEDFATYYCQQYDTLPRTFGQGTKVEIKR
notes: also called IgG of Fab 5299
B2: AG10126 (antibody, human IgG4 S228P, kappa, V domains shown)
VH: EVQLVESGGGLVQPGGSLRLSCAASGYSISSGYHWAWIRQAPGKGLEWVSSISGDGSSTYYADSVKGRFTISRDNSKNTLYLQLNSLRAEDTAVYYCAREGSDAVTGDWFAYWGQGTLVTVSS
VL: DIQLTQSPSSLSASVGDRVTITCRASQGVGTYLAWYQQKPGKAPKLLIYDASSLESGVPSRFSGSGSGTDFTLTISSLQPEDFATYYCQQGYSLWTFGQGTKVEIKR
notes: also called IgG of Fab 5316
B3: AG10060 (antibody, human IgG4 S228P, kappa, V domains shown)
VH: EVQLVESGGGLVQPGGSLRLSCAASGFSLSTSGVGVGWIRQAPGKGLEWLALIDWADDKYYSPSLKSRLTISRDNSKNTLYLQLNSLRAEDTAVYYCARGGSDAVLGDWFAYWGQGTLVTVSS
VL: B2 VL with V29I, T31S, S53N, S56T, L94I
notes: also called IgG of Fab 5359
B4: AG10083 (antibody, human IgG4 S228P, kappa, V domains shown)
VH: EVQLVESGGGLVQPGGSLRLSCAASGFSLSTSGVGVGWIRQAPGKGLEWIGEIYHSGSTYYSPSLKSRVTISRDNSKNTLYLQLNSLKAEDTAVYYCAREGSDVVTGDWFAYWGQGTLVTVSS
VL: B2 VL with V29I, G30S, T31S, Y32V
notes: also called IgG of Fab 5323
B5: AG10085 (antibody, human IgG4 S228P, kappa, V domains shown)
VH: EVQLVESGGGLVQPGGSLRLSCAASGFSLSTSGVGVGWIRQAPGKGLEWVSGISGAGDSTYYADSVKGRFTISRDNSKNTLYLQLNSLRAEDTAVYYCAREGSDTVLGDWFAYWGQGTLVTVSS
VL: B2 VL with G28D, V29I, G30R, T31S, S53N, L54R, E55A, S56T, V58I, L94I
notes: also called IgG of Fab 5367
B6: AG10082 (antibody, human IgG4 S228P, kappa, V domains shown)
VH: EVQLVESGGGLVQPGGSLRLSCAASGYTFSNYWIHWVRQAPGKGLEWVSYISGDGDTTYYADSVKGRFTISRDNSKNTLYLQLNSLRAEDTAVYYCAREGSTTVAGDWFAYWGQGTLVTVSS
VL: B2 VL with V29I, T31S, Y32F, A34G, G91Y, W95V
notes: also called IgG of Fab 5300
B7: AG10063 (antibody, human IgG4 S228P, kappa, V domains shown)
VH: B3 VH with S32G, G35A, A56D, D57G, Y60S, P63T, G100E, D103T, L106V, A111D
VL: B2 VL with V29I, G30S, T31R, S53N, L54R, E55A, S56T, V58I
notes: also called IgG of Fab 5413
B8: AG10079 (antibody, human IgG4 S228P, kappa, V domains shown)
VH: EVQLVESGGGLVQPGGSLRLSCAASGFSLSTGGVGVSWIRQAPGKGLEWVSSISGSGGTTYYADSVKGRFTISRDNSKNTLYLQLNSLRAEDTAVYYCARDDLYSWYFDVWGQGTLVTVSS
VL: B2 VL with V29I, T31S, Y32S, D50A, E55Q, S93Y, L94T
notes: also called IgG of Fab 4074
B9: AG10132 (antibody, human IgG4 S228P, kappa, V domains shown)
VH: B2 VH with S30T, A36S, D55Y, S57D, S58T, A104T, T106L
VL: B2 VL with R24Q, G28D, V29I, G30R, S53N, S56T, L94I
notes: also called IgG of Fab 5408
B10: AG10061 (antibody, human IgG4 S228P, kappa, V domains shown)
VH: B3 VH with G35A, G37A, A56D, Y60R, P63T, G100E, D103T, A104T, L106V, A111D
VL: B2 VL with V29I, S53N, L54R, E55A, S56T, V58I
B11: AG10125 (antibody, human IgG4 S228P, kappa, V domains shown)
VH: B3 VH with S32G, G35A, D57G, Y60S, P63T, A104T
VL: B2 VL with G30S, T31P, S53N, L54R, E55A, S56T, V58I, L94T
notes: also called IgG of Fab 5314
B12: AG10128 (antibody, human IgG4 S228P, kappa, V domains shown)
VH: B3 VH with S32G, G35A, D57G, Y60S, P63T, G100E, S102E, L106T
VL: B2 VL with R24Q, G28D, V29I, G30R, S53N, L54R, E55A, S56T, V58I, L94I
notes: also called IgG of Fab 5342
B13: AG10057 (antibody, human IgG4 S228P, kappa, V domains shown)
VH: B3 VH with G35A, G100E
VL: B2 VL with G28D, V29I, G30S, Y32F, G91A, L94I
notes: also called IgG of Fab 5303
B14: AG10127 (antibody, human IgG4 S228P, kappa, V domains shown)
VH: B3 VH with G35A, A56D, P63T, G100E, D103T, L106A
VL: DIQLTQSPSSLSASVGDRVTITCQASQDIRTFLAWYQQKPGKAPKLLIYDASNRATGIPSRFSGSGSGTDFTLTISSLQPEDFATYYCQQGYSTWTFGQGTKVEIKR
notes: also called IgG of Fab 5318
B15: AG10080 (antibody, human IgG4 S228P, kappa, V domains shown)
VH: EVQLVESGGGLVQPGGSLRLSCAASGYSISSGYYWDWIRQAPGKGLEWVSSISGDGDTTYYADSVKGRFTISRDNSKNTLYLQLNSLRAEDTAVYYCAREYYGYGYALDYWGQGTLVTVSS
VL: DIQLTQSPSSLSASVGDRVTITCRASQGISSYLAWYQQKPGKAPKLLIYDASSLESGVPSRFSGSGSGTDFTLTISSLQPEDFATYYCQQYYSTPLTFGQGTKVEIKR
notes: also called IgG of Fab 4217
B16: AG10062 (antibody, human IgG4 S228P, kappa, V domains shown)
VH: EVQLVESGGGLVQPGGSLRLSCAASGYSISSGYHWAWIRQAPGKGLEWIGEIYHSGSTYYSPSLKSRVTISRDNSKNTLYLQLNSLRAEDTAVYYCARSPYYYGVFDYWGQGTLVTVSS
VL: DIQLTQSPSSLSASVGDRVTITCSASSRVGSVYWYQQKPGKAPKLLIYDASNLETGVPSRFSGSGSGTDFTLTISSLQPEDFATYYCQQYTHDPVTFGQGTKVEIKR
notes: also called IgG of Fab 5404
B17: AG10054 (antibody, human IgG4 S228P, kappa, V domains shown)
VH: EVQLVESGGGLVQPGGSLRLSCAASGFSLSTSGVAVSWIRQAPGKGLEWIGIINPNFGDTNYAQKFQGRVTISRDNSKNTLYLQLNSLRAEDTAVYYCARDEYYGGSYYFDYWGQGTLVTVSS
VL: DIQLTQSPSSLSASVGDRVTITCRASQDVRTAVAWYQQKPGKAPKLLIYDASNLETGVPSRFSGSGSGTDFTLTISSLQPEDFATYYCQQSYDWPPTFGQGTKVEIKR
notes: also called IgG of Fab 4072

Numbering of substitutions follows the chain as printed.

This assay deals with T1, human CD137-His6 (Sino Biological #10041-H08H) (human, UniProt Q07011 24-186).
T1 construct: Bought; also called human CD137 protein; not shown: His6 tag
Kind of assay: SPR Biacore, IgG. In general terms: SPR reads the build-up and loss of mass on a sensor chip optically.
What is called Kd is the concentration at which binding is half-saturated. A higher Kd goes with a looser complex. Broadly, the koff is the rate constant with which the complex falls apart. A higher koff goes with a short-lived complex. Usually kon stands for the second-order rate constant of association. High values mean faster complex formation, low ones slower complex formation. Take B1: the Kd was 6.9 nM, the koff amounted to 0.0017 s⁻¹ and the kon came out at 240000 M⁻¹ s⁻¹.

Turning to B2, the dissociation constant Kd was 14 nM.

The molecule B3 registered a dissociation constant Kd of 1.1 nM, a dissociation rate constant (koff) of 0.00025 s⁻¹ and a kon of 220000 M⁻¹ s⁻¹.

With B4, the Kd is 12 nM, the off-rate (koff) is 0.0069 s⁻¹ and the kon is 570000 M⁻¹ s⁻¹.

Consider B5, for which the affinity, expressed as Kd, was 54 nM; the koff stood at 0.0079 s⁻¹; the association rate constant (kon) amounted to 150000 M⁻¹ s⁻¹.

In the case of B6, the affinity, expressed as Kd, was 13 nM; the koff came to 0.0072 s⁻¹; the kon came out at 560000 M⁻¹ s⁻¹.

B7: the dissociation constant (Kd) amounted to 0.99 nM, the koff worked out at 0.00039 s⁻¹ and the association rate constant (kon) was 390000 M⁻¹ s⁻¹.

Molecule B8 registered an equilibrium dissociation constant (Kd) of 1.4 nM, an off-rate (koff) of 0.00027 s⁻¹ and an association rate constant (kon) of 190000 M⁻¹ s⁻¹.

As to B9, binding was put at a Kd of 69 nM, the koff amounted to 0.014 s⁻¹ and the kon was 200000 M⁻¹ s⁻¹.

The molecule B10 had a dissociation constant Kd of 3.6 nM, a koff of 0.00078 s⁻¹ and a kon of 220000 M⁻¹ s⁻¹.

For the molecule B11, the Kd is 15 nM, the koff is 0.0017 s⁻¹ and the on-rate (kon) came out at 110000 M⁻¹ s⁻¹.

For B12, the dissociation constant Kd was found to be 3 nM, the off-rate constant (koff) is 0.00037 s⁻¹ and the kon was determined as 120000 M⁻¹ s⁻¹.

Turning to B13, the affinity, expressed as Kd, was 7.9 nM; the koff stood at 0.0061 s⁻¹; the kon was 770000 M⁻¹ s⁻¹.

Molecule B14 came in with a dissociation constant (Kd) of 9.6 nM, a dissociation rate constant (koff) of 0.0029 s⁻¹ and a kon of 300000 M⁻¹ s⁻¹.

With B15, the affinity, expressed as Kd, was 10 nM; the koff worked out at 0.012 s⁻¹; the association rate constant (kon) is 1.2e+06 M⁻¹ s⁻¹.

The molecule B16 gave a Kd of 5.9 nM, a koff of 0.00094 s⁻¹ and an on-rate constant (kon) of 160000 M⁻¹ s⁻¹.

For the molecule B17, the Kd is 13 nM, the koff turned out to be 0.0019 s⁻¹ and the kon worked out at 140000 M⁻¹ s⁻¹.
